Results reported in the supplement of paper PMC11316812.
± gives the standard deviation of the averaged measurements.

Legend:
MCF7 = experiment: percentage of EdU-negative (G0-arrested) nuclei per well, 72 h; higher = more G0 arrest; conditions: reference: sequence is the full UniProt precursor, the tested protein was the secreted form or ectodomain
hTERT-HMEC = experiment: as above; conditions: reference: sequence is the full UniProt precursor, the tested protein was the secreted form or ectodomain
[1] = protein concentration 0.0225 µM
[2] = protein concentration 0.00625 µM
[3] = protein concentration 0.0625 µM
[4] = protein concentration 0.0257143 µM
[5] = protein concentration 0.257143 µM
[6] = protein concentration 0.0205 µM
[7] = protein concentration 0.03125 µM
[8] = protein concentration 0.3125 µM
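Also: secreted proteins added to cultured cells, EdU pulse at the end, nuclei found by Hoechst imaging, EdU status from nuclear versus surrounding ring intensity ratio, PBS as neutral control.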

## MARMGLAGAAGRWWGLALGLTAFFLPGVHSQVVQVNDSMYGFIGTDVVLHCSFANPLPSVKITQVTWQKSTNGSKQNVAIYNPSMGVSVLAPYRERVEFLRPSFTDGTIRLSRLELEDEGVYICEFATFPTGNRESQLNLTVMAKPTNWIEGTQAVLRAKKGQDDKVLVATCTSANGKPPSVVSWETRLKGEAEYQEIRNPNGTVTVISRYRLVPSREAHQQSLACIVNYHMDRFKESLTLNVQYEPEVTIEGFDGNWYLQRMDVKLTCKADANPPATEYHWTTLNGSLPKGVEAQNRTLFFKGPINYSLAGTYICEATNPIGTRSGQVEVNITEFPYTPSPPEHGRRAGPVPTAIIGGVAGSILLVLIVVGGIVVALRRRRHTFKGDYSTKKHVYGNGYSKAGIPQHHPPMAQNLQYPDDSDDEKKAGPLGGSSYEEEEEEEEGGGGGERKVGGPHPKYDEDAKRPYFTVDEAEARQDGYGDRTLGYQYDPEQLDLAENMVSQNDGSFISKKEWYV
MCF7; [1]
  percentage of EdU-negative: 25.4 ± 4.4%
MCF7; protein concentration 0.225 µM
  percentage of EdU-negative: 23.9 ± 2.4%
hTERT-HMEC; [1]
  percentage of EdU-negative: 4.56 ± 1.1%
hTERT-HMEC; protein concentration 0.225 µM
  percentage of EdU-negative: 4.77 ± 0.62%

## MRLSPAPLKLSRTPALLALALPLAAALAFSDETLDKVPKSEGYCSRILRAQGTRREGYTEFSLRVEGDPDFYKPGTSYRVTLSAAPPSYFRGFTLIALRENREGDKEEDHAGTFQIIDEEETQFMSNCPVAVTESTPRRRTRIQVFWIAPPAGTGCVILKASIVQKRIIYFQDEGSLTKKLCEQDSTFDGVTDKPILDCCACGTAKYRLTFYGNWSEKTHPKDYPRRANHWSAIIGGSHSKNYVLWEYGGYASEGVKQVAELGSPVKMEEEIRQQSDEVLTVIKAKAQWPAWQPLNVRAAPSAEFSVDRTRHLMSFLTMMGPSPDWNVGLSAEDLCTKECGWVQKVVQDLIPWDAGTDSGVTYESPNKPTIPQEKIRPLTSLDHPQSPFYDPEGGSITQVARVVIERIARKGEQCNIVPDNVDDIVADLAPEEKDEDDTPETCIYSNWSPWSACSSSTCDKGKRMRQRMLKAQLDLSVPCPDTQDFQPCMGPGCSDEDGSTCTMSEWITWSPCSISCGMGMRSRERYVKQFPEDGSVCTLPTEETEKCTVNEECSPSSCLMTEWGEWDECSATCGMGMKKRHRMIKMNPADGSMCKAETSQAEKCMMPECHTIPCLLSPWSEWSDCSVTCGKGMRTRQRMLKSLAELGDCNEDLEQVEKCMLPECPIDCELTEWSQWSECNKSCGKGHVIRTRMIQMEPQFGGAPCPETVQRKKCRIRKCLRNPSIQKLRWREARESRRSEQLKEESEGEQFPGCRMRPWTAWSECTKLCGGGIQERYMTVKKRFKSSQFTSCKDKKEIRACNVHPC [Q9HCB6]
MCF7; [2]
  percentage of EdU-negative: 24.6 ± 2.6%
MCF7; [3]
  percentage of EdU-negative: 24.8 ± 1.8%
hTERT-HMEC; [2]
  percentage of EdU-negative: 4.65 ± 0.17%
hTERT-HMEC; [3]
  percentage of EdU-negative: 6.96 ± 0.65%

## MKKSGVLFLLGIILLVLIGVQGTPVVRKGRCSCISTNQGTIHLQSLKDLKQFAPSPSCEKIEIIATLKNGVQTCLNPDSADVKELIKKWEKQVSQKKKQKNGKKHQKKKVLKVRKSQRSRQKKTT
MCF7; [4]
  percentage of EdU-negative: 24.8 ± 0.99%
MCF7; [5]
  percentage of EdU-negative: 27.7 ± 2.3%
hTERT-HMEC; [4]
  percentage of EdU-negative: 4.62 ± 0.47%
hTERT-HMEC; [5]
  percentage of EdU-negative: 6.18 ± 1.4%

## MLPWTALGLALSLRLALARSGAERGPPASAPRGDLMFLLDSSASVSHYEFSRVREFVGQLVAPLPLGTGALRASLVHVGSRPYTEFPFGQHSSGEAAQDAVRASAQRMGDTHTGLALVYAKEQLFAEASGARPGVPKVLVWVTDGGSSDPVGPPMQELKDLGVTVFIVSTGRGNFLELSAAASAPAEKHLHFVDVDDLHIIVQELRGSILDAMRPQQLHATEITSSGFRLAWPPLLTADSGYYVLELVPSAQPGAARRQQLPGNATDWIWAGLDPDTDYDVALVPESNVRLLRPQILRVRTRPGEAGPGASGPESGAGPAPTQLAALPAPEEAGPERIVISHARPRSLRVSWAPALGSAAALGYHVQFGPLRGGEAQRVEVPAGRNCTTLQGLAPGTAYLVTVTAAFRSGRESALSAKACTPDGPRPRPRPVPRAPTPGTASREP [Q6PCB0]
MCF7; [6]
  percentage of EdU-negative: 26.5 ± 2.2%
MCF7; protein concentration 0.205 µM
  percentage of EdU-negative: 27.6 ± 0.87%
hTERT-HMEC; [6]
  percentage of EdU-negative: 5.62 ± 0.91%
hTERT-HMEC; protein concentration 0.205 µM
  percentage of EdU-negative: 5.75 ± 1.2%

## MLAPGSSPGQRGRLALQWRQVSWITCWIALYAVEALPTCPFSCKCDSRSLEVDCSGLGLTTVPPDVPAATRTLLLLNNKLSALPSWAFANLSSLQRLDLSNNFLDRLPRSIFGDLTNLTELQLRNNSIRTLDRDLLRHSPLLRHLDLSINGLAQLPPGLFDGLLALRSLSLRSNRLQNLDRLTFEPLANLQLLQVGDNPWECDCNLREFKHWMEWFSYRGGRLDQLACTLPKELRGKDMRMVPMEMFNYCSQLEDENSSAGLDIPGPPCTKASPEPAKPKPGAEPEPEPSTACPQKQRHRPASVRRAMGTVIIAGVVCGVVCIMMVVAAAYGCIYASLMAKYHRELKKRQPLMGDPEGEHEDQKQISSVA [Q8N967]
MCF7; [7]
  percentage of EdU-negative: 25.5 ± 0.63%
MCF7; [8]
  percentage of EdU-negative: 25.5 ± 2.5%
hTERT-HMEC; [7]
  percentage of EdU-negative: 5.33 ± 1%
hTERT-HMEC; [8]
  percentage of EdU-negative: 5.93 ± 0.73%

## MARARGSPCPPLPPGRMSWPHGALLFLWLFSPPLGAGGGGVAVTSAAGGGSPPATSCPVACSCSNQASRVICTRRDLAEVPASIPVNTRYLNLQENGIQVIRTDTFKHLRHLEILQLSKNLVRKIEVGAFNGLPSLNTLELFDNRLTTVPTQAFEYLSKLRELWLRNNPIESIPSYAFNRVPSLRRLDLGELKRLEYISEAAFEGLVNLRYLNLGMCNLKDIPNLTALVRLEELELSGNRLDLIRPGSFQGLTSLRKLWLMHAQVATIERNAFDDLKSLEELNLSHNNLMSLPHDLFTPLHRLERVHLNHNPWHCNCDVLWLSWWLKETVPSNTTCCARCHAPAGLKGRYIGELDQSHFTCYAPVIVEPPTDLNVTEGMAAELKCRTGTSMTSVNWLTPNGTLMTHGSYRVRISVLHDGTLNFTNVTVQDTGQYTCMVTNSAGNTTASATLNVSAVDPVAAGGTGSGGGGPGGSGGVGGGSGGYTYFTTVTVETLETQPGEEALQPRGTEKEPPGPTTDGVWGGGRPGDAAGPASSSTTAPAPRSSRPTEKAFTVPITDVTENALKDLDDVMKTTKIIIGCFVAITFMAAVMLVAFYKLRKQHQLHKHHGPTRTVEIINVEDELPAASAVSVAAAAAVASGGGVGGDSHLALPALERDHLNHHHYVAAAFKAHYSSNPSGGGCGGKGPPGLNSIHEPLLFKSGSKENVQETQI [Q9NT99]
MCF7; [7]
  percentage of EdU-negative: 22.3 ± 1.6%
MCF7; [8]
  percentage of EdU-negative: 26.4 ± 1.3%
hTERT-HMEC; [7]
  percentage of EdU-negative: 5.15 ± 0.48%
hTERT-HMEC; [8]
  percentage of EdU-negative: 6.95 ± 0.74%

## MRLLQLLFRASPATLLLVLCLQLGANKAQDNTRKIIIKNFDIPKSVRPNDEVTAVLAVQTELKECMVVKTYLISSIPLQGAFNYKYTACLCDDNPKTFYWDFYTNRTVQIAAVVDVIRELGICPDDAAVIPIKNNRFYTIEILKVE
MCF7; [1]
  percentage of EdU-negative: 25.1 ± 2.6%
MCF7; protein concentration 0.225 µM
  percentage of EdU-negative: 25.5 ± 0.54%
hTERT-HMEC; [1]
  percentage of EdU-negative: 4.779 ± 0.024%
hTERT-HMEC; protein concentration 0.225 µM
  percentage of EdU-negative: 5.95 ± 1.6%
